# Experimental data as given in US20090298167A1 (Pfizer, published 2009).
# Numbering of substitutions follows the chain as printed. Numbers in names are those of the source.
# T1: human gamma common chain expressed on CHO cells (human, UniProt P31785 23-369)
# T1 construct: whole, on cells; Control protein; also called human IL-2R-γ common subunit; human gamma (γ) common chain
# T1 sequence (looked up): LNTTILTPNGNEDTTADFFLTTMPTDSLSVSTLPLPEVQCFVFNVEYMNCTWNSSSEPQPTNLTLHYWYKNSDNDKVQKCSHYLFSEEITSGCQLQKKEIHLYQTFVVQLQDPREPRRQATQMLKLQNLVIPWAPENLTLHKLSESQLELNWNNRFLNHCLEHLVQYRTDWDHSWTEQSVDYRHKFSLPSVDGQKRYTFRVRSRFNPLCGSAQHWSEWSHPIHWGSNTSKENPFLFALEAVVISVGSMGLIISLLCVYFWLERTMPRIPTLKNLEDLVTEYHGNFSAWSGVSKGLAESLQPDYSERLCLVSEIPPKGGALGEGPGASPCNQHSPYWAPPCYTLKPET
# T2: human IL-2Rβ (human, UniProt P14784 27-239)
# T2 construct: Bought
# T2 sequence (looked up): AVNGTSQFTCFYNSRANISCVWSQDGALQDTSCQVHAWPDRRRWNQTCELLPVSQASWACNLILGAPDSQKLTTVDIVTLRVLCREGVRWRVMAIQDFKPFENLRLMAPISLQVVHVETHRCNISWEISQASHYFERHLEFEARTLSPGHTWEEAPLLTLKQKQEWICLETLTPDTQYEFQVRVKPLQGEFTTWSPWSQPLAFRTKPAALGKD
# B1: AbS (antibody, human IgG1, V domains shown)
# VH: QVQLQESGPGLVKPSETLSLTCAVSGYSISSGYYWGWIRQPPGKGLEWIGSISHTGNTYYNPPLKSRVTISVDTSKNQFSLKLSSVTAADTAVYYCARGGGISRPEYWGQGTLVTVSS
# VL: SSELTQDPAVSVALGQTVRITCQGDSLRTYYASWYQQKPGQAPVLVIYGKHKRPSGIPDRFSGSSSGNTASLTITGAQAEDEADYYCMSRSIWGNPHVLFGGGTQLTVL
# notes: Human IgG1 triple-mutant (L234A, L235A, G237A); Framework limits derived; also called VHP/VL6; VHPTM/VL6
# B2: AbT (antibody, human IgG1, V domains shown)
# VH: B1 VH
# VL: B1 VL with M88V, S89A, I92N, W93K
# notes: Human IgG1 triple-mutant (L234A, L235A, G237A); Framework limits derived; also called VHP/VL9; VHPTM/VL9
# B3: murine IL-21R-Fc (Fc fusion, not shown: a dimerising Fc or GST)
# chain: not shown
# B4: AbQ (antibody, human IgG1, V domains shown)
# VH: B1 VH with G99F, G100M, I102F, S103G
# VL: B1 VL with M88V, S89A, I92V, W93V
# notes: Purified form: human IgG1 double-mutant (L234A, G237A); Framework limits derived; also called VH3/VL2; VH3DM/VL2
# B5: AbD (antibody, human IgG1, V domains shown)
# VH: B1 VH
# VL: B1 VL with M88V, S89T, S91N, I92R, W93Y
# notes: Full-length human IgG1 / human lambda, transient, conditioned medium; Framework limits derived; also called VHP/VL13
# B6: AbO (antibody, human IgG1, V domains shown)
# VH: B1 VH
# VL: B1 VL with M88V, S89T, I92A, W93K
# notes: Human IgG1 triple-mutant (L234A, L235A, G237A); Framework limits derived; also called VHP/VL16; VHPTM/VL16
# B7: AbL (antibody, human IgG1, V domains shown)
# VH: B1 VH with G99F, G100M, I102F, S103G
# VL: B1 VL with M88V, S89T, S91N, I92R, W93Y
# notes: Full-length human IgG1 / human lambda, transient, conditioned medium; Framework limits derived; also called VH3/VL13
# Target: T3, human IL-21R expressed on cells (human, UniProt Q9HBE5 20-538)
# Test: cell-based or functional assay
# T3 sequence (Q9HBE5 20-538 limits assumed): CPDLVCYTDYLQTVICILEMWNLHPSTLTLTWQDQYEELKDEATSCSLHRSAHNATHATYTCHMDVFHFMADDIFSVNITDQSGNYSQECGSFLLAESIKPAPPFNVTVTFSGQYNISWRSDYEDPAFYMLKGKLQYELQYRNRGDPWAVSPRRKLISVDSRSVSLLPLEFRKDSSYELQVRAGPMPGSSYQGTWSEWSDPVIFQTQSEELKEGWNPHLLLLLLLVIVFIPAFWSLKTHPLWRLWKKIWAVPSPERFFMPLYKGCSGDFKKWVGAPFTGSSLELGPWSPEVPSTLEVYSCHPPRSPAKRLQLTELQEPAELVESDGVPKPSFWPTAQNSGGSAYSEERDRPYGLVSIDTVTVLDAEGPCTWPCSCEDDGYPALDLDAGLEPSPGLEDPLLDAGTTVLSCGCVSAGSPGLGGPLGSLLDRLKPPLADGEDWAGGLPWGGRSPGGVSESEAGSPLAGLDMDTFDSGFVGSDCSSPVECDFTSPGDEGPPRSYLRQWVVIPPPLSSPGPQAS
Human IL-21R-BaF3 Neutralization IC50 [nM],Human IL-21R-TF1 Neutralization IC50 [nM],Binder
0.68,6.67,B1
0.3,2.32,B2

# Target: murine IL-21 (murine, UniProt Q9ES17 18-146)
# Test: cell-based or functional assay
row,Murine IL-21R-BaF3 Neutralization IC50 [nM],Binder
1,0.04,B3

# Target: T4, murine IL-21R expressed on cells (murine, UniProt Q9JHX3 20-529)
# Test: cell-based or functional assay
# T4 sequence (Q9JHX3 20-529 limits assumed): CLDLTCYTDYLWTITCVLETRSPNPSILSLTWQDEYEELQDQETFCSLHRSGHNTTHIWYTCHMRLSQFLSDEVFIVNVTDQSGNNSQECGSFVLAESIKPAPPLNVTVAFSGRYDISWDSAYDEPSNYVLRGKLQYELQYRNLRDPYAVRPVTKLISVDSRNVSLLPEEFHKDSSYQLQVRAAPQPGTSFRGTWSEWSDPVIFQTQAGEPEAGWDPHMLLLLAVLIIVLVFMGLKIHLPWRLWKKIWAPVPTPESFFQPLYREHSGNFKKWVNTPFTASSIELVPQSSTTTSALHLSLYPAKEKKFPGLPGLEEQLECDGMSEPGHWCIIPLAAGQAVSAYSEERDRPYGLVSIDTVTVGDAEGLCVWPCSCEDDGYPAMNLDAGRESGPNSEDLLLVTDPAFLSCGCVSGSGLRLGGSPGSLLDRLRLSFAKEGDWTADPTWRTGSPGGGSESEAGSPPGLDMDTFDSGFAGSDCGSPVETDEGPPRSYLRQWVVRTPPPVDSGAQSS
row,Murine IL-21R-BaF3 Neutralization IC50 [nM],Binder
1,0.04,B1
2,0.05,B2

# Target: T3, human IL-21R expressed on cells
# Test: cell-based or functional assay
# Remark: another data set of the same source
row,Neutralization of B cell proliferation IC50 [nM],Binder
1,0.16,B4
2,0.44,B1
3,0.14,B2

# Target: T3, human IL-21R expressed on cells
# Test: cell ELISA on transfected CHO cells, 13 nM IgG
# Description: (§1) A subset of binding proteins was tested for binding to rat, cynomolgus monkey, human IL-21R, or human IL-2R-γ common subunit expressed transiently on the surfaces of CHO-PA-Dukx cells. Cells were transfected 48 hr prior to the assay. On the day of the assay, cells were washed gently 5× in PBS containing 0.9 mM CaCl₂ and 0.45 mM MgCl₂ (PBS/CaMg) on an automated plate washer (Titertek, Huntsville, Ala.), and blocked for 1 hr at RT in PBS/CaMg/5% nonfat dry milk. Conditioned media from transiently expressed anti-IL-21R IgGs were serially diluted in blocking buffer and added to the cells in the blocked plates for 1 hr at RT. Cells were washed 5× with PBS/CaMg and then incubated with horseradish peroxidase-conjugated anti-human IgG for 1 hr at RT. Cells were then washed 10× in PBS/CaMg and all of the wash buffer was removed. Cells were incubated with 100 μl TMB until the color reaction reached saturation, stopped with 100 μl of 0.18 M H₂SO₄, and read at A450 on a Perkin Elmer ENVISION™ plate reader.
row,A450 at 13 nM Ab in cell ELISA [A450],Binder
1,1.25,B5
2,1.11,B6
3,1.25,B4
4,1.02,B1
5,1.08,B2
6,1.45,B7

# Target: T5, rat IL-21R expressed on cells (rat)
# T5 construct: whole, on cells; Transiently transfected CHO-PA-Dukx cells
# Test: cell ELISA on transfected CHO cells, 13 nM IgG
# Description: as §1
row,A450 at 13 nM Ab in cell ELISA [A450],Binder
1,0.874,B5
2,1.1,B6
3,1.16,B4
4,1.17,B1
5,0.994,B2
6,1.26,B7

# Target: T1, human gamma common chain expressed on …
# Test: cell ELISA on transfected CHO cells, 13 nM IgG
# Description: as §1
row,A450 at 13 nM Ab in cell ELISA [A450],Binder
1,0.108,B6
2,0.125,B4
3,0.118,B1
4,0.102,B2

# Target: T6, cynomolgus monkey IL-21R expressed on CHO cells (cynomolgus monkey)
# T6 construct: whole, on cells
# Test: cell ELISA on transfected CHO cells, 13 nM IgG
# Description: as §1
row,A450 at 13 nM Ab in cell ELISA [A450],Binder
1,1.38,B5
2,1.36,B6
3,1.31,B4
4,1.22,B1
5,1.22,B2
6,1.51,B7

# Target: T3, human IL-21R expressed on cells
# Test: cell-based or functional assay
# Remark: another data set of the same source
Human IL-21R-BaF3 Proliferation IC50 [nM],Human IL-21R-TF1 Proliferation IC50 [nM],Binder
0.91,2.67,B5
0.52,2.91,B6
0.68,4.62,B4
1.53,5,B1
0.67,3.26,B2
0.68,4.25,B7

# Target: T4, murine IL-21R expressed on cells
# Test: cell-based or functional assay
# Remark: another data set of the same source
row,Murine IL-21R-BaF3 Proliferation IC50 [nM],Binder
1,0.01,B5
2,0.065,B6
3,0.153,B4
4,0.04,B1
5,0.093,B2
6,0.227,B7

# Target: T4, murine IL-21R expressed on cells
# Test: cell-based or functional assay
# Remark: another data set of the same source
row,"Neutralization of T cell Proliferation IC50 (nM), murine primary CD8+ T cells [nM]",Binder
1,4.92,B6
2,0.85,B4
3,0.02,B1
4,0.61,B2

# Target: T3, human IL-21R expressed on cells
# Test: cell ELISA: CHO cells transiently expressing the receptor, antibody in conditioned medium, HRP anti-human IgG, A450
# Description: FIG. 6 depicts the binding of 21 anti-IL-21R IgGs to CHO cells transiently expressing human IL-21R (FIGS. 6a-c), rat IL-21R (FIGS. 6d-f), cynomolgus monkey IL-21R (FIGS. 6g-i), and human gamma common chain (FIGS. 6j-l). CHO cells were transiently transfected with IL-21R or the control gamma common chain, and binding was detected with HRP-conjugated anti-human IgG in a cell-based ELISA.
# as §1
row,EC50 (read off the curve) [nM],Binder
1,~1,B5
2,~0.3,B6

# Target: T3, human IL-21R expressed on cells
# Test: cell-based or functional assay
# Remark: another data set of the same source
row,"Neutralization of T cell Proliferation IC50 (nM), human primary CD4+ T cells [nM]",Binder
1,0.06,B6
2,0.08,B4
3,0.06,B1
4,0.03,B2

# Target: T5, rat IL-21R expressed on cells
# Test: cell-based or functional assay
"IC50 (nM) experiment 1, rat T cell proliferation [nM]","IC50 (nM) experiment 2, rat T cell proliferation [nM]",Binder
36,27.1,B1

# Target: T6, cynomolgus monkey IL-21R expressed on …
# Test: cell ELISA: CHO cells transiently expressing the receptor, antibody in conditioned medium, HRP anti-human IgG, A450
# Description: as §1
row,EC50 (read off the curve) [nM],Binder
1,~0.6,B4
2,~0.8,B7

# Target: T2, human IL-2Rβ
# Test: BIACORE: antibody captured on anti-human IgG, 50 nM analyte injected
# Description: (§2) The specificity of binding of a subset of transiently expressed anti-IL-21R binding proteins (here antibodies) was tested on a BIACORE™ 2000 surface plasmon resonance instrument. Anti-human-IgG, anti-murine immunoglobulin antibodies, and murine IL-21R-H/F were immobilized onto a research-grade carboxymethyl-dextran chip (CM5) using standard amine coupling. The sensor chip surface was activated with EDC/NHS for 7 min at a flow rate of 20 μl/min. The first flow cell was used as reference surface to correct for bulk refractive index, matrix effects, and nonspecific binding. […] Remaining activated groups were blocked with 1.0 M ethanolamine (pH 8.0). The molecular weights of the anti-human IgG and the anti-murine IgG were both 150 kD, and the molecular weight of the IL-21R monomer was 27 kD.
# (§3) Conditioned media containing anti-IL-21R antibodies and antibody controls (murine anti-human IL-2Rβ and murine anti-human IL-4R(R&D Systems, Minneapolis, Minn.); human anti-human IL-13 (Wyeth, Cambridge, Mass.)) were diluted in HBS/EP buffer supplemented with 0.2% bovine serum and injected onto all four flow cells of the BIACORE™ chip, capturing 500-700 (RU) of antibody on the species-appropriate capture antibody. Following a 5 sec washing period, 50 nM solutions of a positive control protein (murine IL-21R-H/F), two human proteins related to IL-21R (human IL-2Rβ and human sIL-4R(R&D Systems)), or an unrelated His/FLAG-tagged protein (human IL-13-H/F), were injected over the captured antibodies on the chip. The association and dissociation phases were monitored for 120 and 180 sec, respectively, followed by two 5 μl injections of glycine (pH 1.5) to regenerate a fully active capturing surface. All binding experiments were done at 25° C. in HBS/EP buffer. Blank and buffer effects were subtracted for each sensorgram using double referencing.
row,binding result,Binder
1,no binding (tested: 50 nM),B6
2,no binding (tested: 50 nM),B4
3,no binding (tested: 50 nM),B1
4,no binding (tested: 50 nM),B2

# Target: T7, human soluble IL-4R (human, UniProt P24394 26-231, limits assumed)
# T7 construct: soluble; also called human sIL-4R
# Test: as above
# Description: as §2, §3
# T7 sequence (P24394 26-231 limits assumed): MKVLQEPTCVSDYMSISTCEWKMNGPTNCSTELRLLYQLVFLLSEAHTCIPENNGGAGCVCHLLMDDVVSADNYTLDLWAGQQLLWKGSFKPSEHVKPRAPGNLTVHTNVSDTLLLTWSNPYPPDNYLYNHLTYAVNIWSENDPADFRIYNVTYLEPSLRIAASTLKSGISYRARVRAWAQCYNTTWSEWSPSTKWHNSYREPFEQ
row,binding result,Binder
1,no binding (tested: 50 nM),B6
2,no binding (tested: 50 nM),B4
3,no binding (tested: 50 nM),B1
4,no binding (tested: 50 nM),B2

# Target: T8, human IL-13-His/FLAG (human, UniProt P35225 35-146, limits assumed)
# T8 construct: Unrelated His/FLAG-tagged control; also called human IL-13-H/F
# Test: as above
# Description: as §2, §3
# T8 sequence (P35225 35-146 limits assumed): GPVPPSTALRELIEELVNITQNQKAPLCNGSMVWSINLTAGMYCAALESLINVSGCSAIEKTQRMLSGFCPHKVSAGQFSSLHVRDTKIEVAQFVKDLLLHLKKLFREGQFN
row,binding result,Binder
1,no binding (tested: 50 nM),B6
2,no binding (tested: 50 nM),B4
3,no binding (tested: 50 nM),B1
4,no binding (tested: 50 nM),B2
